Measurements taken from patent publication US8722052B2, “Vaccinia virus protein A46 peptide and use thereof” (priority 2008, dated 2014).
“Also recorded” adds a separate entry of the source.

Target: T1, TLR3 (Homo sapiens, UniProt O15455)
T1 construct: expressed in transfected cells
Assay: poly(I:C)-induced NFκB / ISRE luciferase reporter assay in HEK293_TLR3 cells
Assay type: cell-based
Details: peptide 2, 5 or 10 μM, 25 μg/ml poly(I:C), 6 h
Protocol: FIGS. 11A and B are bar charts showing the effect of A464 and scrambled A464 (ConA464) on poly(I:C)-induced TLR3 signalling in HEK293 cells. HEK293_TLR3 cells were seeded in 96 well plates (1.5×10^5 cells/ml) 24 hours before transfection with the plasmid DNA. Cells were transfected with 60 ng of either ISRE-Luciferase (A) or NFκB-Luciferase (B) and 20 ng of TK-Renilla reporter gene plasmids. The total volume of plasmid DNA transfected into the cells was made up to 230 ng by adding pcDNA.
Scrambled A464 (ConA464) (SEQ ID NO. 32) and A464 (SEQ ID NO. 20) peptides were added to the cells at a concentration of 2, 5 or 10 μM the next day and cells were stimulated with 25 μg/ml poly(I:C) 1 hour after treatment with the peptide. Cells were harvested and reporter gene assays performed 6 hr after stimulation with the agonist. No peptides were added to the control wells (black bars). Data is representative of at least three experiments each performed in triplicate. Data are expressed as mean fold induction±s.d. relative to control levels;
FIGS. 20A and B are bar charts showing the effect of shortened A464 peptides with deletions of N- and C-terminal amino acids on TLR4- and TLR3-induced NFκB activation in HEK293 cells. HEK293_TLR4 (A) and HEK293_TLR3 (B) cells were seeded in 96 well plates (1.5×10^5 cells/ml) 24 hours before transfection with the plasmid DNA. Cells were transfected with 60 ng NFκB-Luciferase and 20 ng of TK-Renilla reporter genes, as in FIG. 11. A464N-2 (SEQ ID NO. 41) and A464C-3 (SEQ ID NO. 42) peptides were added to the cells at a concentration of 1, 5 or 25 μM the next day and cells were stimulated with either 10 ng/ml LPS (A) or 25 μg/ml Poly(I:C) (B) 1 hour after treatment with peptides. Cells were harvested and assayed for NFκB activation by reporter gene assay 6 hours after stimulation with the agonists. No peptides were added to the control wells (black bars). Data is representative of three experiments each performed in triplicate and is expressed as mean fold induction±s.d. relative to control levels;
HEK293 cells were transfected using GeneJuice® a proprietary non-toxic transfection reagent. 200 μl/well cells at a density of 1×10^5 cells/ml were seeded the day before transfection. 0.8 μl of GeneJuice was mixed with 9.2 μl of serum-free DMEM (SFM) per transfection and incubated for 5 min at room temperature before adding the appropriate amount of the plasmid DNA. The GeneJuice/SFM/DNA mixture was then incubated at room temperature for 15 min before adding to the cells. 10 μl per well of the GeneJuice/SMF/DNA mixture was added to the cells in triplicate and the cells were allowed to recover for 18-20 hours before stimulation. […]

KYSFKLILAEYRRRRRRRRR [Peptide A464]
inhibition of TLR3-mediated ISRE induction: slightly enhanced; also recorded: insensitive to inhibition | inhibition of TLR3-mediated NFκB activation: insensitive to inhibition; also recorded: slightly enhanced
